From US12187807B2, “Antibody molecules to C5AR1 and uses thereof” (Visterra, Inc., priority 2020, dated 2025)
Each block holds one molecule with its values, some of them ahead of it.

Experiments:
[1] = oral administration, human C5aR1 transgenic mice; cited from earlier work
C5aR1 = molecular target: T1, C5aR1 (Homo sapiens, UniProt P21730); settings: cited from earlier work
T1 sequence (P21730 1-350): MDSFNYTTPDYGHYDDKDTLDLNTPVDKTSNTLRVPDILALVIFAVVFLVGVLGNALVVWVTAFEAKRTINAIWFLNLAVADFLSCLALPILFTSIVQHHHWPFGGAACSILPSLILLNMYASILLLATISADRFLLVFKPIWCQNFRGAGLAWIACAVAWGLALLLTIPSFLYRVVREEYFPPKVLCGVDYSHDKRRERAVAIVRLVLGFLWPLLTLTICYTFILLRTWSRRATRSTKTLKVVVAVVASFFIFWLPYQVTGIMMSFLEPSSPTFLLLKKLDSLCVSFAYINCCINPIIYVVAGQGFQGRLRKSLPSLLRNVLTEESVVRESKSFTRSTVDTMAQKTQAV

[2] = system: control cells that were mock transfected; assay: Cell surface binding (flow cytometry), mock transfected Expi293 control cells; settings: staining with 100 nM of antibody
Experimental: (§1) Follow up screening to ensure specificity was performed by measuring cell surface binding to cells expressing, for example, human C5aR1, human C5aR2, mouse C5aR1, and control cells that were mock transfected. Briefly, cell surface binding was performed on various C5aR1 expressing cell lines (transiently expressed Expi293 cells, stable C5aR1-U937 cells, and neutrophils isolated from whole blood). Briefly, a titration of antibody diluted in flow buffer (1×PBS with 2% fetal bovine serum) was incubated with cells for 1 hour at 4° C. Cells were washed twice with flow buffer. Anti-human-APC secondary antibody was diluted 1:400 in flow buffer and incubated with cells for 30 minutes. Cells were washed twice with flow buffer and resuspended in 100 μL of flow buffer. Fluorescence was measured using the iQue Screen Plus flow cytometer.

[3] = molecular target: T2, human C5aR1 transiently expressed on the surface of Expi293 cells (Homo sapiens, UniProt P21730, K279N); assay: Cell surface binding (flow cytometry), Expi293 cells transiently expressing human C5aR1; settings: staining with 100 nM of antibody
T2 construct: expressed in transfected cells; host or cells: Expi293 cells, transient
T2 sequence (P21730 with tags, fused parts or gaps K279N limits assumed): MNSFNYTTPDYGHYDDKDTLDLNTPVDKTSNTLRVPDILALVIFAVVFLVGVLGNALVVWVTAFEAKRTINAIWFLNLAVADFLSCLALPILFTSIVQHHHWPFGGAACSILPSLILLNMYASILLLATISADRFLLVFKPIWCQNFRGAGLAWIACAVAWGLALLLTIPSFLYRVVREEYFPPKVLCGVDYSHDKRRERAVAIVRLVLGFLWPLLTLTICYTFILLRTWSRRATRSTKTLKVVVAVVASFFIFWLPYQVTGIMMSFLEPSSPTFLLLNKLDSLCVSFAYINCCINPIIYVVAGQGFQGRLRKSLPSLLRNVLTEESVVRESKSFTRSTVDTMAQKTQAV
Experimental: as §1

Molecule: Cc1ccc(NC(=O)[C@H]2CCCN(C(=O)c3c(C)cccc3F)[C@H]2c2ccc(NC3CCCC3)cc2)cc1C(F)(F)F [Avacopan, avacopan]
severity of anti-MPO NCGN [1]: reduced the severity of anti-MPO NCGN

B1: C5a: complement component 5a, agonist of C5aR1 (protein, UniProt P01031 678-751, looked up)
C5a anaphylatoxin: TLQKKIEEIAAKYKHSVVKKCCYDGACVNNDETCEQRAARISLGPRCIKAFTECCVVASQLRANISHKDMQLGR
modifications: C5a anaphylatoxin
notes: complement component 5a, agonist of C5aR1
on rate for C5aR1 (C5aR1): about 4.8e8 M^−1min^−1

Cell surface binding, Human C5aR1, geometric mean fluorescent intensity [3]: 310,187
B2: Clone_11v2 (antibody, V domains shown)
VH: QVQLQQSGPELVKPGASVKISCKASGYSFSSSWMNWVKQRPGKGLEWIGRISPGDGDTRYSGKFKGKATLTADKSSSTAYMQVTSLTSEDSAIYFCVRFLITSTRYVMDYWGQGTTVTVSS
VL: DVVMTQTPLSLPVSLGDQASISCRSSQSLVHSNGNTYLHWYLQKPGQSPKLLIYKVSNRFSGVPDRFSGSGSGTDFTLKISRVEAEDLGVYFCSQSTLVPPTFGGGTKLEIK
Cell surface binding, Mock transfection, geometric mean fluorescent intensity [2]: 4,976 Clone_454
